Results: patent US20200353078A1 (AstraZeneca / MedImmune, published 2020)
Where a chain is given by its changes, count along the chain named. Values belong to the binder of their own block, whether it stands above or below them.

What was measured:
His10/Avi Cyno IL-33 [1] = molecular target: T1, His10/Avi Cyno IL-33 (cynomolgus monkey); experiment: HTRF epitope competition, scFv titrated; competitor DyLight labelled 33_640027 IgG
T1 construct: also called Cynomolgus 10His Avitag IL-33; biotinylated His Avi cynomolgus IL-33
T1 chain: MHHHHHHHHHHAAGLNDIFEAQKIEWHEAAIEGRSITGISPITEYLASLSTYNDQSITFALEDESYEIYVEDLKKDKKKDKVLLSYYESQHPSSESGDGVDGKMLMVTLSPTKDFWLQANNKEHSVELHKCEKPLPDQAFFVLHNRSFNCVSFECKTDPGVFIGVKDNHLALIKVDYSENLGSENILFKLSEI

His10/Avi Human IL33-01 [2] = molecular target: T2, His10/Avi Human IL33-01 (human); experiment: as above
T2 construct: Wild type mature IL-33 with N-terminal 10xHis, Avitag and Factor Xa site; biotinylated by BirA on the Avitag where used biotinylated; reduced form unless treated; also called N-terminal His Avi IL-33; His-Avi human IL-33 wild type
T2 chain: T1 chain with K77E, S94N, Q118H, R146M, S147H, F148S, Y177S, G182C, S183T, I193T

His10/Avi Cyno IL-33 [3] = molecular target: T1, His10/Avi Cyno IL-33; experiment: HTRF epitope competition, scFv titrated; competitor DyLight labelled 33v20064 IgG
Procedure: (§1) This was followed by the addition of 2.5 microlitres of a solution containing 0.8 nM biotinylated human IL-33-01 combined with 0.75 nM streptavidin cryptate detection (Cisbio International, 610SAKLB) for the human assay or a solution containing 4 nM biotinylated cynomolgus IL-33 combined with 1.5 nM streptavidin cryptate detection (Cisbio International, 610SAKLB) for the cynomolgus assay. All dilutions were performed in assay buffer containing 0.8 M potassium fluoride (VWR, 26820.236) and 0.1% bovine serum albumin (BSA, PAA, K05-013) in Dulbeccos PBS (Invitrogen, 14190185). Assay plates were incubated for 1 hour at room temperature and time resolved fluorescence was read at 620 nm and 665 nm emission wavelengths using an EnVision plate reader (Perkin Elmer). Data were analysed by calculating the 665/620 nm ratio followed by the % Delta F values for each sample. The 665/620 nm ratio was used to correct for sample interference using Equation 1. The % Delta F for each sample was then calculated using Equation 2. The negative control (non-specific binding) was defined by replacing biotinylated IL-33 combined with streptavidin cryptate detection with streptavidin cryptate detection only. The % Delta F values were subsequently used to calculate % specific binding as described in Equation 3.
(§2) Unique scFv were expressed again in bacteria and purified by affinity chromatography (as described in WO01/66754). Purified anti-IL-33 antibody samples were tested for potency of inhibition by competing a dilution series of the purified preparation against DyLight labelled 33v20064 IgG or DyLight labelled 33_640027 IgG for binding to biotinylated His Avi IL33-01, biotinylated His Avi IL33-11 or biotinylated His Avi cynomolgus IL-33. Methods are as described in the previous section.

His10/Avi Human IL33-11 = molecular target: T3, His10/Avi Human IL33-11 (human); experiment: as above
T3 construct: C208S, C259S mutant (already in the entry), N-terminal His10/Avitag; also called His-Avi mutant IL-33; SCCS
T3 chain: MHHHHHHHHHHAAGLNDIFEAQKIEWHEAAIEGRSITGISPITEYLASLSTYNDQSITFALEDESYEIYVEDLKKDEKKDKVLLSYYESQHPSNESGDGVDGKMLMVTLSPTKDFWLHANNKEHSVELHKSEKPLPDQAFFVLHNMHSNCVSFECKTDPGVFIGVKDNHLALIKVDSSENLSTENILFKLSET
Procedure: as §1, §2

His10/Avi Human IL33-01 [4] = molecular target: T2, His10/Avi Human IL33-01; experiment: as above
Procedure: as §1, §2

[5] = molecular target: T4, Full-length human IL-33 (amino acids 1-270), HEK293-EBNA cell lysate (human, UniProt O95760 1-270); experiment: cell-based or functional assay
T4 sequence (looked up): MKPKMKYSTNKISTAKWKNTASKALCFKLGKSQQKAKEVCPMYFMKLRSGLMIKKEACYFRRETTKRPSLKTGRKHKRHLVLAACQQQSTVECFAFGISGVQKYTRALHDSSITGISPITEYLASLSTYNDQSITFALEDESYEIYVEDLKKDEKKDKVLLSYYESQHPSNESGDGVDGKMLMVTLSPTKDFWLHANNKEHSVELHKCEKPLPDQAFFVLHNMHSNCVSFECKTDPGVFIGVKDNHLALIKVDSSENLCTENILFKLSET

His10/Avi Human IL33-01 [6] = molecular target: T2, His10/Avi Human IL33-01; experiment: HTRF epitope competition, IgG titrated; competitor DyLight labelled 33_640117 IgG; overnight
Procedure: (§3) As the epitope competition assay utilising 33_640027 reached its limit of sensitivity, an assay using 33_640117 was used for testing purified scFv samples. The assay was essentially as described for the 33v20064 competition assay with the following modifications: 2.5 nM DyLight labelled 33_640117 was prepared and 2.5 microlitres added to the assay plates. This was followed by the addition of 2.5 microlitres of a solution containing 0.12 nM biotinylated human IL-33-01 combined with 0.75 nM streptavidin cryptate detection (Cisbio International, 610SAKLB) for the human assay or a solution containing 0.24 nM biotinylated cynomolgus IL-33 combined with 1.5 nM streptavidin cryptate detection (Cisbio International, 610SAKLB) for the cynomolgus assay. Fluorescence was read after one hour and overnight incubation.
(§4) The ability of anti-IL-33 antibodies to inhibit the binding of biotinylated His Avi human IL-33 or cynomolgus His Avi IL-33 to the DyLight labelled 33_640117 IgG was assessed in a biochemical HTRF® (Homogeneous Time-Resolved Fluorescence, Cisbio International) competition assays as described above.

His10/Avi Cyno IL-33 [7] = molecular target: T1, His10/Avi Cyno IL-33; experiment: HTRF epitope competition, IgG titrated; competitor DyLight labelled 33_640117 IgG; 1 hour
Procedure: as §3, §4

His10/Avi Human IL33-01 [8] = molecular target: T2, His10/Avi Human IL33-01; experiment: as above
Procedure: as §3, §4

[9] = molecular target: T5, Human IL-33 (Axxora/Alexis ALX-522-098) (human, UniProt O95760 112-270); experiment: cell-based or functional assay
T5 sequence (looked up): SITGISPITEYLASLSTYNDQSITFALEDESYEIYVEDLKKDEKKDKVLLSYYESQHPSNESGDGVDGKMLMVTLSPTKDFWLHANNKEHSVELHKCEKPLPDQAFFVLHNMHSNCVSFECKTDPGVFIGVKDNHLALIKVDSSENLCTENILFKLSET

[10] = molecular target: T6, Human IL-33 (Axxora/Adipogen AG-40B-0038) (human, UniProt O95760 112-270, limits assumed); experiment: cell-based or functional assay
T6 sequence (looked up): T5 sequence (looked up)

[11] = molecular target: T7, Cynomolgus IL-33 Flag®His (cynomolgus monkey); experiment: ELISA, biotinylated antigen on streptavidin plate, anti-human IgG HRP
T7 construct: C-terminal FLAG 10xHis tag, E. coli; also called Mature Cynomolugus IL-33; cyno IL-33 FH
T7 chain: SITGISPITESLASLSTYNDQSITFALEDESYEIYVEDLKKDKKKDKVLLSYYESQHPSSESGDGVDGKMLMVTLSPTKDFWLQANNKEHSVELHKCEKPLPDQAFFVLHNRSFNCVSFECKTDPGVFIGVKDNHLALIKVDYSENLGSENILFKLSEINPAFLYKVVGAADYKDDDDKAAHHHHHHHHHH
Procedure: (§5) 96-well Greiner polypropylene plates (Greiner, 650201) were used for dilution preparation. Generally, each dilution was prepared in duplicate. IgG dilutions were allowed to block in PBS-M for 1 hour at room temperature before being used directly in ELISA experiments.
(§6) Streptavidin plates (Thermo Scientific, AB-1226) were coated with biotinylated antigen at 0.5 μg/ml in PBS and incubated overnight at 4° C. Plates were washed 3× with PBS and blocked with 300 μl/well blocking buffer (PBS-M) for 1 hour. Plates were washed 1× with PBS and blocked samples added, 50 μl/well for 1 hour at room temperature. […] Plates were washed 3× with PBS-T and developed with TMB, 50 μl/well (Sigma, T0440). The reaction was quenched with 50 μl/well 0.1M H2504 before reading on an EnVision™ plate reader, or similar equipment, at 450 nm.
(§7) Species cross-reactivity of anti-IL-33 antibodies was determined using a plate-based ELISA. Streptavidin plates (Thermo Scientific, AB-1226) were coated with biotinylated antigen at 0.5 μg/ml in PBS. Binding of purified IgG preparations was detected with anti-human IgG HRP (Sigma, A0170).

Mouse IL-33 Flag®His = molecular target: T8, Mouse IL-33 Flag®His (mouse); experiment: as above
T8 construct: C-terminal FLAG 10xHis tag, E. coli; also called Mature Mouse IL-33_FH; mouse IL-33 FH
T8 chain: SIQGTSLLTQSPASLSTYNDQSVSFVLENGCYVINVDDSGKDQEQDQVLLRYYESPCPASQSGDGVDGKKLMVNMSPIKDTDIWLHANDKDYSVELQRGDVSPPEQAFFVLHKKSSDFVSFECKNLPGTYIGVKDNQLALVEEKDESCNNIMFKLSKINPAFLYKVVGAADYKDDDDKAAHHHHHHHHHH
Procedure: as §5, §6, §7

Human IL-33 Flag®His = molecular target: T9, Human IL-33 Flag®His (human); experiment: as above
T9 construct: Mature IL-33 with C-terminal FLAG 10xHis tag, from E. coli; biotinylated via free cysteines where used biotinylated; also called Mature Human IL-33_FH; human IL-33 FH
T9 chain: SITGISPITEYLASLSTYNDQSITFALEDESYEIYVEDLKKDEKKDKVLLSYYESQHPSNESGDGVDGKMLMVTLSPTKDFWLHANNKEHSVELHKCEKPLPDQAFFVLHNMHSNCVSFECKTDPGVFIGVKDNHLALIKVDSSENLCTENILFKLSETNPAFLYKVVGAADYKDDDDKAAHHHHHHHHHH
Procedure: as §5, §6, §7

Endogenous human IL-33 = molecular target: T10, Endogenous human IL-33 (human, UniProt O95760 1-270, limits assumed); experiment: cell-based or functional assay
T10 sequence (looked up): T4 sequence (looked up)

- IC50 (His10/Avi Cyno IL-33 [1]): 8.8 nM
- IC50 (His10/Avi Human IL33-01 [2]): 2.3 nM
- IC50 (His10/Avi Cyno IL-33 [3]): 2.7 nM
- IC50 (His10/Avi Human IL33-11): 0.5 nM
- IC50 (His10/Avi Human IL33-01 [4]): 0.4 nM
B1: 33_640047 scFv (scFv, V domains shown)
VH: EVQLLESGGGLVQPGGSLRLSCAASGFTFSSYAMSWVRQAPGKGLEWVSAISGSGGSTYYADSVKGRFTISRDNSKNTLYLQMNSLRAEDTAVYYCTRLKFMQLWGGGLRYPFGYWGQGTMVTVSS
VL: SYVLTQPPSVSVSPGQTASITCSGERMGDKYAAWYQQKPGQSPVLVIYQDTKRPSGIPERFSGSNSGNTATLTISGTQAMDEADYYCQVWDSSTGVFGGGTKVTVL
notes: Single chain Fv; also called ZZ1F7P-E01

- IC50, Huvec IL-8 assay vs. full length IL-33 cell lysate [5]: 185 nM
- IC50 (His10/Avi Human IL33-01 [6]): 689 nM
- IC50 (His10/Avi Cyno IL-33 [7]): 788 nM
- IC50 (His10/Avi Human IL33-01 [8]): 150 nM
B2: 33v20064 IgG1 (antibody, V domains shown)
VH: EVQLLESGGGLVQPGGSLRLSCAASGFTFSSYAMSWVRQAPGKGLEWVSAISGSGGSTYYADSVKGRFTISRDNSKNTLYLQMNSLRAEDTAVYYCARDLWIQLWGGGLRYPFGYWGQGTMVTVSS
VL: B1 VL with S1L, Y2P, T17K, V44I, A79D
notes: IgG1; also called ZZ1EBX-E05

- IC50, TF-1 proliferation [9]: 94 nM
- IC50 (geomean), Mast cell IL-6 production [10]: 283 nM
- EC50 [11]: 1.09 nM
- EC50 (Mouse IL-33 Flag®His): 0.83 nM
- EC50 (Human IL-33 Flag®His): 0.86 nM
B3: IL330107 IgG (antibody, V domains shown)
VH: QMQLVQSGGGVVQPGGSLRLSCAASGFTFSSYAMSWVRQAPGKGLEWVSAISGSGGSTYYADSVKGRFTISRDNSKNTLYLQMNSLRAEDTAVYYCAKPFPSYWYFDLWGKGTLVTVSS
VL: SYVLTQPPSVSVSPGQTARITCSGDALPKQYAYWYQQKPGQAPVLVIYKDSERPSGIPERFSGSSSGTTVTLTISGVQAEDEADYYCQSADSSGTYRVFGGGTQLTVL
notes: IgG1 or IgG1-TM

- IC50, Huvec IL-8 release stimulated by human lung lysate (Endogenous human IL-33): 0.019 nM
- IC50, Huvec IL-8 assay vs. full length IL-33 cell lysate [5]: 0.67 nM
B4: Human ST2-Fc (R&D Systems, or source not stated in the example) (Fc fusion, UniProt Q01638 19-328, looked up, not shown: a dimerising Fc or GST)
chain: KFSKQSWGLENEALIVRCPRQGKPSYTVDWYYSQTNKSIPTQERNRVFASGQLLKFLPAAVADSGIYTCIVRSPTFNRTGYANVTIYKKQSDCNVPDYLMYSTVSGSEKNSKIYCPTIDLYNWTAPLEWFKNCQALQGSRYRAHKSFLVIDNVMTEDAGDYTCKFIHNENGANYSVTATRSFTVKDEQGFSLFPVIGAPAQNEIKEVEIGKNANLTCSACFGKGTQFLAAVLWQLNGTKITDFGEPRIQQEEGQNQSFSNGLACLDMVLRIADVKEEDLLLQYDCLALNLHGLRRHTVRLSRKNPIDHHS
